The record followed here is patent publication US20220009987A9, “HUMAN RESISTIN COMPOSITIONS AND METHODS OF TREATING TLR4-MEDIATED DISEASE AND INFECTION” (THE REGENTS OF THE UNIVERSITY OF CALIFORNIA, priority 2017, published 2022).

Entries after “also recorded” stand apart in the source; their conditions may differ.

One test concerns the target human TLR4 (Homo sapiens, UniProt O00206). As to the kind of experiment: Pull-down assay with His-tagged human TLR4. The format is binding. Particulars: nickel-NTA agarose beads, anti-hRetn blot. As to the method: (§1) Pull-down Assay. 1 μg/ml protein His-tagged MBP, human TLR4 and human CAP1 were added to nickel-nitrilotriacetic acid-agarose beads (Invitrogen) in binding buffer (50 mM NaH2PO4, 500 mM NaCl, 10 mM Imidazole, pH 8.0) and mixed for 1 hour at 4° C., followed by washing and 1 h incubation at 4° C. with hRetn (E. coli-derived, Peprotech or 293T cell-derived, LifeSpan Biosciences) in binding buffer. Beads were washed in wash buffer (50 mM NaH2PO4, 500 mM NaCl, 20 mM Imidazole, pH 8.0), and complex protein eluted with elution buffer (50 mM NaH2PO4, 500 mM NaCl, 250 mM Imidazole, pH 6.0). His-MBP, His-TLR4 and His-CAP1 were detected by anti-His antibody (Abcam), and hRetn was detected by anti-hRetn antibody (donated by Mitchell Lazar) by Western Blot. For the N-peptide binding experiment, 1 μg/ml His-tagged human TLR4 with 500 ng/ml N-peptide or 10% TFE control was added to the beads in binding buffer and mixed for 30 min at 4° C., followed by co-immunoprecipitation using 1 μg/ml Flag-hRetn (LifeSpan Biosciences), anti-His or anti-Flag (Sigma).

The test system of the next test is CD14+CD11b+ monocytes. In words: Competitive resistin/LPS binding assay on human PBMCs (flow cytometry). Particulars: for LPS binding to CD14+CD11b+ monocytes: pre-incubation before LPS-biotin, on ice. In kind it is cell-based. As to the method:
(§2) Human PBMCs. Human buffy coat was purchased from Zen-bio. Buffy coat was overlaid on top of Histopaque-1077 and spun at 700g at 25° C. with no brake and PBMCs were recovered from the interphase. PBMCs were plated in 96-well plates and stimulated with mammalian-derived human resistin (1 μg/mL, LifeSpan Biosciences) or hRetn N-peptide (1 μg/mL). After 24 hours, ultrapure LPS (100 ng/mL, Invivogen) was added and supernatants recovered for ELISA at 24 hours. Where indicated, cells were incubated for 4 hours with STAT3 (5, 15-DPP, 50 μM) or TBK1 (BX-795, 1 μM) inhibitors prior to hRetn treatment. For the hRetn competitive binding assay, 1×10^6 cells were incubated with recombinant hRetn (0.5 μg), washed in PBS then incubated with 0.5 μg LPS-biotin (incubations were 30 minutes on ice). Cells were washed in FACS buffer, treated with Fc block, and stained with BV605-conjugated streptavidin and α-human primary antibodies: CD14 (clone M5E2), CD11 b (clone M1/70) and MD2/TLR4 (clone HTA125) purchased from Affymetrix.
Background: Flow cytometry measures light scatter and fluorescence of single cells or particles in a stream.

A further test deals with human CAP1 (Homo sapiens, UniProt Q01518). In words: Pull-down assay with His-tagged human CAP1. The format is binding. Conditions: nickel-NTA agarose beads, anti-hRetn blot. As to the method:
as §1

The next test concerns human PBMCs. As to the kind of experiment: Human PBMC functional assay, LPS-induced cytokine secretion (ELISA). The format is cell-based. The method, then:
as §2
Cytokine Quantification. Sandwich ELISAs were performed using capture and biotinylated antibodies for human resistin (Peprotech), IL-10 and TNFα (BD Biosciences) according to manufacturer's instructions. Detection was performed with streptavidin-peroxidase (Jackson ImmunoResearch) and TMB peroxidase substrate (BD Biosciences), followed by addition of 2N H2SO4. Optical density (OD) was captured at 450 nm. Samples were compared to serial-fold dilution of recombinant protein. For Luminex, inflammatory cytokine kits (Affymetrix) were run according to manufacturer's instructions and quantified on Luminex MagPix (Luminex Corp.). For cytokine bead array, cytokine kits from BD Bioscience were run according to manufacturer's instructions on BD LSRII and analyzed using FCAP Array Software.
A general note: An ELISA detects its analyte on a solid surface through an enzyme-linked reagent.

The mark [1] stands for this setting: human PBMC, pre-treatment then LPS 100 ng/mL.

Sequence of human TLR4 (O00206 24-839): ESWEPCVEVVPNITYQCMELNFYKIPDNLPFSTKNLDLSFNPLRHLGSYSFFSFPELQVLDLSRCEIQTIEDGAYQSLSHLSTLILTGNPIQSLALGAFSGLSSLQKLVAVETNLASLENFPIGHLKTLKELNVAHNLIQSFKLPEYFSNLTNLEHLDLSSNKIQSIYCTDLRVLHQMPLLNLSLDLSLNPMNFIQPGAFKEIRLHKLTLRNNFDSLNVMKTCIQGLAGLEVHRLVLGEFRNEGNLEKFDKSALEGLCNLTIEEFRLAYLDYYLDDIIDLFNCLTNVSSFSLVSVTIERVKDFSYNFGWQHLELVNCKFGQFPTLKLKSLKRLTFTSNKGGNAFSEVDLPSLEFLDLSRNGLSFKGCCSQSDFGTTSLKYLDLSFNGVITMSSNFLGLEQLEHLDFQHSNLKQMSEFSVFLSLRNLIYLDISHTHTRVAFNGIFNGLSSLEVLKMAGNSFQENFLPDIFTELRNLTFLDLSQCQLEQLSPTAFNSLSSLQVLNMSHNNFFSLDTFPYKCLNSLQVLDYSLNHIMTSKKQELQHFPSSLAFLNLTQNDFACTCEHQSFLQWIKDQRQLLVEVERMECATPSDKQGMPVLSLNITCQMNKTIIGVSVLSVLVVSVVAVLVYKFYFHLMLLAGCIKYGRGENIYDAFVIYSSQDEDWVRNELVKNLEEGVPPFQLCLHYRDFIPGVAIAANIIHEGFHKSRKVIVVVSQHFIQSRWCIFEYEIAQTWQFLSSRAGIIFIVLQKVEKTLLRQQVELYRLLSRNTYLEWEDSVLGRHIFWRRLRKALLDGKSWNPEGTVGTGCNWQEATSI
Sequence of human CAP1 (Q01518 whole entry): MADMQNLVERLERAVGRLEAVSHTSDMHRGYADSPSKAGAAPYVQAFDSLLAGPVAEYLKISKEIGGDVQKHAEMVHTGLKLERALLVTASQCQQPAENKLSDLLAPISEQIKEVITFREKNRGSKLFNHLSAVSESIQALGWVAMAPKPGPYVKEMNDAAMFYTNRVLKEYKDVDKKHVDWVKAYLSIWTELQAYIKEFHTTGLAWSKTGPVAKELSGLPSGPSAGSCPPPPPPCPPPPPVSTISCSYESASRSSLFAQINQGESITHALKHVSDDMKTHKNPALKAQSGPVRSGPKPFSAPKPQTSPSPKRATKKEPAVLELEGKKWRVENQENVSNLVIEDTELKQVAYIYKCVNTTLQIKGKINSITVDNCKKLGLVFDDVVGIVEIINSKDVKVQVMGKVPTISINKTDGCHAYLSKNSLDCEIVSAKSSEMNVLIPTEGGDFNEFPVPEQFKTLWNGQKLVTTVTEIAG

B1: hRetn: human resistin protein (hRetn) having an amino acid sequence of SEQ ID NO: 1; recombinant, E. coli-derived or 293T cell-derived (protein, listed as Homo sapiens)
chain: MKALCLLLLPVLGLLVSSKTLCSMEEAINERIQEVAGSLIFRAISSIGLECQSVTSRGDLATCPRGFAVTGCTCGSACGSWDVRAETTCHCQCAGMDWTGARCCRVQP
Regarding B1, the “hRetn in pull-down elution with his-TLR4 (Western blot)” value is recorded as “only present in the elution with his-TLR4” with human TLR4 and “only detected when pulled down with his-TLR4” in the test with human TLR4 (listed as mammalian-derived hRetn). Also, the “cell population binding hRetn in human PBMC” value in the test with CD14+CD11b+ monocytes (flow cytometry) is “CD11b+CD14+ monocytes were the dominant population that bound hRetn”. In addition, in the test on CD14+CD11b+ monocytes (human PBMC, flow cytometry), the “LPS-promoted surface MD2/TLR4 complex formation” value is on record as “abrogated”. The figures for the “LPS binding to CD14+CD11b+ monocytes” value in the test on CD14+CD11b+ monocytes and in the test with CD14+CD11b+ monocytes (listed as full-length hRetn) were “significantly abrogated” and “inhibited LPS binding”, respectively. In addition, the “hRetn in pull-down elution with his-CAP1 (Western blot)” value with human CAP1 was “not his-CAP1”. In addition, the “hRetn functional effect on TNFα and IL-10 when STAT3 signaling was inhibited” value with human PBMCs (human PBMC, 5,15-DPP 50 μM 4 hours prior to hRetn) is “also abrogated”. Besides, the “hRetn functional effect on TNFα and IL-10 in the presence of TBK1 inhibitor” value in the test with human PBMCs (human PBMC, BX-795 1 μM 4 hours prior to hRetn) is recorded as “abrogated”. For the same molecule, the “IL-10 expression after LPS” value with human PBMCs (setting [1]) is reported as “increased IL-10 expression”. Besides, the “LPS-induced TNFα secretion” value in the test with human PBMCs (setting [1]) is “significantly more TNFα than cells treated with hRetn and LPS; also recorded: significantly reduced LPS-induced TNFα secretion”.
